Data from publication PMC9008036, “Structural and molecular determinants for the interaction of ExbB from Serratia marcescens and HasB, a TonB paralog” (Communications Biology, 2022).

What was measured:
[1] = target: ExbBSm, C-terminally His6-tagged (from pBADExbBSmHis6), purified alone (Serratia marcescens); assay: cryo-EM structure; purified ExbBSm-His6 alone in LMNG micelles, ca. 1 mg/mL, 20 mM Tris pH 8.0, 100 mM NaCl, 0.0015% LMNG; single-particle, C5 symmetry, 3.1 Å
[2] = target: ExbBSm, untagged, co-expressed and co-purified with ExbDSm-His6 (from pBADExbBDSmHis6) (Serratia marcescens); assay: cryo-EM structure; purified ExbBDSm complex (His6 on ExbD) in LMNG micelles, ca. 1 mg/mL, 20 mM Tris pH 8.0, 100 mM NaCl, 0.0015% LMNG; single-particle, C1, 3.96 Å
[3] = target: T1, C-terminal periplasmic domain of HasB, HasBCTD, residues 133-263 (Serratia marcescens, UniProt Q79AD1 133-263, 15N-labeled); assay: NMR titration; 1H-15N HSQC of 0.15 mM 15N-labeled HasBCTD, 50 mM sodium phosphate pH 7, 50 mM NaCl, 293 K, 600 MHz; peptide added at 2:1 and 10:1 ratios; chemical shift perturbations; conditions: both partners purified
T1 construct: HasB, TonB paralog of Serratia marcescens, C-terminal periplasmic domain, residues 133-263; also called C-terminal globular domain of HasB
T1 sequence (looked up): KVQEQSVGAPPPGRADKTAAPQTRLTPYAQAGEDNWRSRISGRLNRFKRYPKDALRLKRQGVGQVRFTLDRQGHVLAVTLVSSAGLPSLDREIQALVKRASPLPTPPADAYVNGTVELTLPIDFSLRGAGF

ExbBSm, C-terminally His6-tagged (from pBADExbBSmHis6), purified alone (natural protein)
stoichiometry N [1]: 5

ExbBSm, untagged, co-expressed and co-purified with ExbDSm-His6 (from pBADExbBDSmHis6) (natural protein)
stoichiometry N [2]: 5

ExbDSm, C-terminally His6-tagged (from pBADExbBDSmHis6) (natural protein)
stoichiometry N (ExbD monomers per ExbB pentamer) [2]: 2

B1: ExbBSm 1-44 synthetic peptide (periplasmic extension of ExbBSm) (peptide)
peptide: APAANPAVTESVAPTTAPAPAAAAPESITPVNPAPTIQPPETRG
notes: ExbB of Serratia marcescens Db11 (SMDB11_3480), periplasmic N-terminal extension, residues 1-44. numbers count on: the mature protein; also called periplasmic peptide of ExbBSm residues 1-44; periplasmic fragment of ExbBSm; source: synthetic peptide (Proteogenix)
binding result [3]: binds
